Assay: yeast display, Sf9 membrane polyspecificity reagent, FACS + sequencing; frameworks hold sequencing errors
Summary of the method: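 In a synthetic yeast display library (Saccharomyces cerevisiae BJ5465), nanobody expression was induced with galactose for 36–48 hours. FACS gates were set low and high (top ~1%) using anti-HA fluorescence for expression and streptavidin fluorescence for binding of the Sf9 membrane reagent. Each polyreactivity label is drawn from the gate of origin.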

Row | Sequence | polyreactivity (PSR sort gate)
1 | QVQLVESGGGLVQAGGSLRLSCAASGFIFVPYAMGWYRQAPGKERELVAAISSSGGSTNYTDSVKGRFTISRDNAKNTVYLQMISLKPEDTAVYYCAAATWYVNPTHFNRYSEFYYWGQGTQVTVSS | low polyreactivity
2 | QVQLVESGGGLVQAGGSLRLSCAASGRTDFNTMGWYRQAPGKERELVAAITSTGRTYYADSVKGRFTISRDNAKNTVYLQMNSLKPEDTAVYFCAAVWRYKGLLLPSYYYWGQGTQVTVSS | high polyreactivity
3 | QFQLVESGGVLVQAGGSLRLSCAASGSTFNHYAMGWYRQARGKERELVADITKSGASTYADSVKGRFTISRDNAKNSVYLQMNSLKPEDTAVYYCAAGRRNYGTKGRGDYWGQGTQVTVSS | low polyreactivity
4 | QVQLVESGGGLVQAGGSLRLSCAASGNIFAYYAMGWYRQAPGKERELVAGISRRGGNTYYADSVKGRFTISRDNAKNTVYLQMNSLKPEDTAVYYCAAKTYSGQRFDYWGQGTQVTVSS | high polyreactivity
5 | QVQLVESGGGLVQAGGSLRLSCAASGSIFDYYAMGWYRQAPGQERELVAAISVRGGSTYYADSVKGRFTISRDNANNTVYLHKNSLKPEDTAVYYCAADYAYNKYLSVEYWGQGTQVTVSS | low polyreactivity
6 | QVQLVESGGGLVQEGGSLRLSCAASGITFSRNAMGWYRPAPGKERELVATITSGGSTNYADSVKGRFTISRDNAKNNVYLQMNSLKPEDTAVYYCNAVWNTFISGRSYDYWGQGTQVTVSS | low polyreactivity
7 | QVQLVESGGGLVQAGGSLRLSCAASGRIFGPYAMGWYRQAPGKERELVAASSTDYADSVKGRFTISRDNAKNTVYLQMNSLKPEDTAVYYCAKVGFGIPGGFYYWGQGTQVTVSS | low polyreactivity
8 | QVQLVESGGGLVQAGGSLRLSCAASGRILVPYAMGWYRQAPGKERELVAAINPRGGRTYYADSVKGRFTISRDNAKYTVYLQMNSLKPEDTAVYYCNALAHQYHRYEFGYWGQGTQVTVSS | low polyreactivity
9 | QVQVVESGGGLVQPGCSLRLSCAASGNIFVYNDMGWYRQAPGKERELVAAIDSGGSTYYADSVKGRFTISRDNAKNNVYLKMNSLKQEDTAVYYCAADYYCTYRTIYYYWGQGTQVTVSS | low polyreactivity
10 | QVQLVESGGGLVQAGGSLRLSCAASGSTFYSYTMGWYRQAPWKERELVATISWSGSSTYYADSVKGRFTISRDNAKNTVYLQMNSLKPEDTAVYYCAAEWDESYSYRRYRHYDYWGQGTQVTVSS | low polyreactivity
11 | QVHLVESGGGLVQAGGSLRLSCAASGRTFSRYAMGWYRQAPGKERELVAGISLSGTSTYYADSVKGRFTISRDNAKNTVYLQMNSLIPVVTAVYYCATYSSYIPYGFDYWGQGTQVTVSS | high polyreactivity
12 | QVQLVESGGGLVQAGGSLRLSCAASGRTIIYNTMGWSRQAPGKEREFVAAINWSGGSTYYADSVKGCFTISRDNAKNTVYLQMNSLKPEDTAVYYCNAEAGYYRPLIYDYWGQGTQVTVSS | low polyreactivity
13 | QVHLVESGGGLVQAGGSLRLSCSASGSTFFPYAMGWYRQAPGKERELVAAITSGGRTKYADSVKGRFTISRDNAKNTVYLQMNSLKPEDNAVYYCAARGLIKEYGGPYRRFGYWGQGTKVTVSS | high polyreactivity
14 | QVQLVESGGGLVQAGGSLRLSCGASGRTFGRYAMGWYRQAPGKERELVDAITWSGGSTYYADSVKGRFTISRDNAKNTVYLQMNSLKPEDTAVYYCAASGYPIYHDDYWGQGTQVTVSS | low polyreactivity
15 | QVQLVESGGGLVQAGGSLRLSCAASGRTFSYYARGWYRQAPGKEREFVAAISSSGGSTNYADSVKGRFTISRDNAKNTVYLQMNSLKPEDTAVYYCNAGSGYTGVYLWYYWRYDYWGQGTQVTVSS | low polyreactivity
16 | QVQLVESGGGLVQAGGSLRLSCAASGSNFPSYAMGWYTKAPGEEMEFVARISRGDDSTYYADSVKGRFTISRDNAKNTVYLQMNSLKPEDTAVYYCAADYPDVVYLEYDYWGQGTQVTVSS | low polyreactivity
17 | QVQLVESGGRLVQAGGSLRLSCAASGFIFCLNAMGWYRHAQGKERELVATIDNSGGSTYADSVKGRFTISRDNAKNTVYLQMNSLKPEVTAVYYCARDDGLLSYGYWGQGTQVTVSS | low polyreactivity
18 | QVQLVESGGGLVQAGGSLRLSCAASGSIFGYNAMGWYRQAPGKERELVAVITRSDGSTYYADSVKGRFTISRDNAKNTVYLQMNSLKPEDTAVYYCNAETHVYYWGVVIYEYNYWGQGTQVTVSS | low polyreactivity
19 | QVQLVESGGGLAQAGGSLRLRCAASGRTFPSYAMGWYSQAPGKERELVAAISRSGARTYYADSVKGRFTISRDNAKTTVYLQMNSLKPDDTAVYYCAAVGSTRYEYWGQGSQVTVSS | high polyreactivity
20 | QVQLVESGGGLVQAGGSLRLICAASGRIFGYYTMGRYRQAPGKERELVADNNRDGSTYADSVKGRFTISRDNAKNSVYIQMNSLKPEDTAVYYCIAQYDSAYGLGFFIGYFSQYDYWGQGTQVTVSS | low polyreactivity
21 | QVQLVESGGGLVQAGGSLRLSCAASGIIFYYYAMGWYRQAPGKERELVAAISWSGGSTYYADSVKGRFTISRDNAKNTVYLQMNSLKPEDTAVYYCAADYTGHIYYYWGQGTQVTVSS | low polyreactivity
22 | QVQLVESGGGLVQAGGSLRLSCAASGRTFGGYAMGWYRQAPGKERELVATISYSSGSTYYADSVKGRFTISRDNAKNTVYLQLNSLKTEDTAVYYCAAEYRSRSWRMDYWGQGTQVTVSS | high polyreactivity

Row | Sequence | polyreactivity (PSR sort gate)
23 | QVQLVESGGGLVQAGGSLRLSCADSGNTFYGYAMGWSRQSPGTERELVASITLSGDSTYYADSVKGRFTISRDNAKNTVYLQMNSLKPEDTAVYYCAGVYTYPLGYYHYTYDYWGQGTQVTVSS | low polyreactivity
24 | QVQLVESGGGLVQAGGILRLSCAASGQIFTYYVMGWYRQAPGKERELVAAIDWDSGSTSYADSLKGRFTISRDNAKNTVYLQMNSLKPEDTAVYYCAADEVLSGYYTLDYWGQGTQVTVSS | low polyreactivity
25 | QVQLVESGGGLVQAGGRLRLSCAASGRTFKLYAMGWYRQAPGKERELVAAISGRGGSTYYADSVKGRFTISRDNAKNTVYLQMNSLKPEDTAVYYCNWYGKYEYWGQGTQVTVSS | high polyreactivity
26 | QVQLVESGGGLVQAGGSLRLSCAASGRIFRRNTMGWYRQAPGKERELVATISKNGGSTYYADSVKGRFTISRDNAKNTVYLQMNSLKPADTAVYYCNAPDPSSTSYFPYELGYWGQGTQVTVSS | high polyreactivity
27 | QVQLVESGGGLVQAGGSLRLSCAASGLIFLYYAMGWNRQAPGKERELVAAIRTNYADSVKGRFTISRDNAKNTVYLQMNSLKPEDTPVYYCAAESCQTPTSAFDYWGQGTQVTVSS | low polyreactivity
28 | QVQLVESGGGLVHAGGSLRLSCAASGSIFNYYAMGWYRQAPGKERELVAAISYGTGSTYYADSVKWRFTISRDNAKNTDYLQMNSLKPEDTAVYYCAADTRYGYGYWGQGTQVTVSS | high polyreactivity
29 | QVQRVVSGGGLVQAGGSLRLSCAASGSIFQGNAMGWYRQAPGQERELVAAIHRSDGRTYYADSVKGRFTISRDNAKNTVYLQMNSLKPEDTAVYYCKVDVLLVHDYVFYSWMDYWGQGSQVTVSS | high polyreactivity
30 | QVQLVESGGGLVQAGGSLRLSCAASGRIFARNVMGWYRQAPGKERELVAGISRSGGTTYYADSVKGRFTISRDNAKNTVYLQMNSLKPEDTAVYYCAAYYFLENDYWGPGTQVTVSS | high polyreactivity
31 | QVQLVESGGGLVQAGGSLRLSCAASGITFKTYTMGWYRQAPGKERELVAAITRSGAGTYYADSVKGRFTISRDNAKNTVDLQMNSLKPEDTAVYYCAARVRWGYRYGYWGQGTQVTVSS | high polyreactivity
32 | QVQLVESGGGLVQAGGSLRLSCAASGSIFCQYVMGWYRQAPGKERVLVAAISWSGPRTYYADSVKGRFTISRDNAKNTVDLQMNSLKPEDTAVYYCAARRLYAGHQYDYWGQGTQVTVSS | high polyreactivity
33 | QVKHVESVGRLVQAGGSLRLSSASSGRIFRSYAMGCYRQAPGKESEYVAAISRSGGRTYYADSVKGRFTISRDNAKNTVYLQMNSLKPEDSAVYYCAVVDYHVHSSDYNYWGQGTQVTVSS | high polyreactivity
34 | QVQLVESGGGLVQAGGILRLSCAASGSIFYRNAMGWYRQAPGKERELVAAISARGGRTNYADSVKGRFTISRDNAKYTVYLQMNSLKPEDTAVYYCNTADSWYHRSQAYDYWGQGTQVTVSS | high polyreactivity
35 | QVQLVESGGGLVQAGGSLRLSCAASGFTFGHYAMGWYRPAPGKERELVAAISSGDRTYYADSVKGRFTISRDNAKNTVYLQMNSLKPEDTAVYYCNAVYYSWAQSARFDYWGQGTQVTVSS | low polyreactivity
36 | QVQLVESGGGLVQAGGSLRLSCAASGFTFILYAMGWYRQAPGKERELVAAITTSGGRTYYADSVKGRFTISRDTAKNTVYLQMNSLKPEDTAVYYCNARTTPKERDYWGQGTQVTVSS | high polyreactivity
37 | QVHLVESGGGLVQAGGSLRISCAASGSIFFPYAMGGYRQAPGKERELVAAISYSGTSTYYAASVKGRFTISRDNAKNTVYLQMNSLKPVDTAVYYCAAYSRYYASYDYWGQGTQVTVSS | high polyreactivity
38 | QVQLVESGGGLVQAGGSLRLSCAASGSTFYDYAMGWYRQAPGKERELVASISISGGSTYADSVKGRFTISRDNAKNTVYLQMNSLKPEDTAVYYCAADSWGIGYGPDYEYWGQGTQVTVSS | low polyreactivity
39 | QVQLVESGGGLVQAGGSLRLSCAASGFTSSRNAMGWYRQAPGKERELVATISSGGDTYYADSVKGRFPISRDNAKTTVYLQMNSLKPEDTAVYYCNKDPLYAWGYDYWGQGTQVTVSS | low polyreactivity
40 | QVQLVESGGGLVQAGGSLRLSCAASGSTLWYNARGWYRDAPGKERELVAAITTSTDSTYYADSVKGRFTISRYNAKNTVYLQMNSLKPEDTAVYYCAAVLHLNGGGKAYDYWGLGTQVTVSS | low polyreactivity
41 | QVQLVESGGGLVQAGGSLRLSFAASGITFPYYAMGWYRQAPGKEREFVAAISSSGGSTYYADSVKGRFTISRDNAKKTVYLKMHCLKAEDTEVYYCAAGVYGRSSYSKPVLYEYWGQGTQVTVSS | high polyreactivity
42 | QVQLVESGGGLVQAGGSLRLSCAASGSIFVGYARGWYRQAPGKERELVAAISFSGGSTYYADSVKGRFTLSRDNAKNTVYLQMNSLKPEDTAVYYCNAYSWYNGIGNYDYWGQGTQVTVSS | low polyreactivity
43 | QVQLVESGGGLVQAGGSLRLSCAASGRIFVLNAMGWYRQAPGKERELVAGITDGGSTNYADSVKGRFTISRDNAKNTVYLEMNSLKPEDTAVYYCAAVVYEYLYDFQAFVEDAGYYWGQGTQVTVSS | low polyreactivity

— the nanobody polyreactivity screen of Harvey et al. (2022)
